In publication PMC8181454 one finds koff data, which are given here for 1 substance.

In this assay the target is recombinant HPV16 E6 protein (human papillomavirus type 16) (UniProt P03126). Put plainly: SPR. (In general: SPR reads the build-up and loss of mass on a sensor chip optically.)
Chain of UniProt P03126 (P03126 whole entry): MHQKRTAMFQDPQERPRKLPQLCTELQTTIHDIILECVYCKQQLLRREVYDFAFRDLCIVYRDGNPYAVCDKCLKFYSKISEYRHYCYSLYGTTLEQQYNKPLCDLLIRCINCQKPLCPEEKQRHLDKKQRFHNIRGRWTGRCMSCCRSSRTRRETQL

Turning to “ZWT affibody (original affibody scaffold molecule, wild-type Z domain) (designed binder)”, the koff is 0.000886 s⁻¹.

The term koff denotes a measure of how fast the partners let go of each other.
